In US20050214212A1:

Tests used:
[1] = biological target: CD44v6 (human CD44 variant isoform containing exon v6) on human tumour cells (human) (UniProt P16070); assay: competitive cell ELISA (A431 cells, vs BIWA 1)
Target sequence in this assay (P16070 21-742, stated change not applied): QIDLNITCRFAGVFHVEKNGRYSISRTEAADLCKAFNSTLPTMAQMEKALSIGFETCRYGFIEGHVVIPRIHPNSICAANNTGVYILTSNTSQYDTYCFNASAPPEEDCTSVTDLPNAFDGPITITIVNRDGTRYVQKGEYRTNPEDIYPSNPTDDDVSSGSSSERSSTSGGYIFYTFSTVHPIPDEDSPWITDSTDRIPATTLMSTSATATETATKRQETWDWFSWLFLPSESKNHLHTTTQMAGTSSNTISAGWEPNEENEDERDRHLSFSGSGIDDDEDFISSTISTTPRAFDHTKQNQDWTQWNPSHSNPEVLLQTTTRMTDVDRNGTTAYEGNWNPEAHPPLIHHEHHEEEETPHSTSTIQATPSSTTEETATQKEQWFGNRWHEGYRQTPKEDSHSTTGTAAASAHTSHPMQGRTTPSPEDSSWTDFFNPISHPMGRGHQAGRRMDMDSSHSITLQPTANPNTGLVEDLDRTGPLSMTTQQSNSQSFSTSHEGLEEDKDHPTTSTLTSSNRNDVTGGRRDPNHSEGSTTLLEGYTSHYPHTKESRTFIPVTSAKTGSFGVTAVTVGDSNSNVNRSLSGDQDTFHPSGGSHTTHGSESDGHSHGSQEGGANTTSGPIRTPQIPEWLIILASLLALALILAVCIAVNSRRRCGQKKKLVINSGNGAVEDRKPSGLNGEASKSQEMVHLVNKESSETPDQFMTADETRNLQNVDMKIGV

[2] = biological target: glutathione-S-transferase fusion protein containing domains v3-v10 of human CD44 (human) (UniProt P16070); assay: SPR (BIAcore 2000), GST/CD44v3-v10 immobilised on CM5
[3] = biological target: CD44v6 (human CD44 variant isoform containing exon v6) on human tumour cells (human) (UniProt P16070); assay: immunoreactivity assay on fixed UM-SCC-11B cells, linear extrapolation to infinite antigen excess, experiment 2
[4] = biological target: glutathione-S-transferase fusion protein containing domains v3-v10 of human CD44 (human) (UniProt P16070); assay: SPR (BIAcore 2000), GST/CD44v3-v10 immobilised on CM5, MAb 8-67 nM injected
[5] = biological target: CD44v6 (human CD44 variant isoform containing exon v6) on human tumour cells (human) (UniProt P16070); assay: immunoreactivity assay, 186Re-MAG3-labelled MAb on fixed UM-SCC-11B cells
[6] = biological target: CD44v6 (human CD44 variant isoform containing exon v6) on human tumour cells (human) (UniProt P16070); assay: immunoreactivity assay, 125I-labelled MAb on glutaraldehyde-fixed UM-SCC-11B cells, experiment 2

Sequence of glutathione-S-transferase fusion protein containing domains v3-v10 of human CD44 (human) (P16070 267-604): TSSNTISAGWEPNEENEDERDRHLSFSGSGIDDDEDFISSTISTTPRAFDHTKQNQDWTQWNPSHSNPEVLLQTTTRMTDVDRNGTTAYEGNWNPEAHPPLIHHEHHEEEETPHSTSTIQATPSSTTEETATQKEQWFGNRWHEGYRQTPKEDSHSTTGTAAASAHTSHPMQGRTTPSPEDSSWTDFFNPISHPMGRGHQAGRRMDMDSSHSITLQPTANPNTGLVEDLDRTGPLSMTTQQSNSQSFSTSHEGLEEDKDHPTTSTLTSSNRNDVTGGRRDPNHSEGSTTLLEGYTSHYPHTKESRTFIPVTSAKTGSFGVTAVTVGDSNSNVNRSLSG

| IC50 [1] | Kd relative to murine BIWA 1 [2] | Binding Extrapolated (%) (immunoreactive fraction) [3] | Kd [4] | koff [4] | kon [4] | immunoreactive fraction [5] | Binding to 5 × 10^6 cells (%) [6] | Substance |
| --- | --- | --- | --- | --- | --- | --- | --- | --- |
| 8.01 µg/mL | – | – | – | – | – | – | – | hMAb BIWA 4 (bivatuzumab), humanised CDR-grafted antibody without framework modifications |
| – | 0.7 | 79.9% | 0.24 nM | 4.1e-05 s⁻¹ | 170000 M⁻¹ s⁻¹ | > 75% | 80.5% | cMAb BIWA 2 (chimeric antibody: BIWA 1 variable regions, human gamma-1 and kappa constant regions) |
